# Where “and” joins values, the source holds several entries; their conditions need not be identical. Identical values can stand only once. Like-named read-outs stand apart in the source and are kept apart here.
# Columns and labels:
# [1] = Insulin crystallization kinetics (desupersaturation, induction time, crystal yield); format: physicochemical
# Description: (§1) Precise temperature control was achieved by using incubators held at a constant temperature. Citric acid buffer (0.1 M) was prepared at different pH levels by varying the ratio between citric acid and tri-sodium citrate. The pH was determined using a Jenway 4330 pH and conductivity meter (Jenway, UK) with an instrument resolution of around ±0.02 pH units. Zinc sulfate (ZnSO4), zinc chloride (ZnCl2), or zinc acetate (ZnAc) were dissolved in citric acid buffer as a zinc salt stock solution. […] Each experimental condition was repeated multiple times, and the error bars represent the deviation between these repetitions. The desupersaturation (crystallization occurs and the solution concentration decreases) was monitored by measuring the UV–vis absorption at a wavelength of 280 nm with a NanoDrop One^c microvolume UV–vis spectrophotometer (Thermo Fischer Scientific, USA). A sample as small as 10–20 μL was withdrawn from the crystallizer (Eppendorf tube) and was centrifuged (6000 rpm, 10–20 min). […] An extinction coefficient of 1.04 mL·mg^–1·cm^–1 was utilized.[32] Multiple dilutions for every sample were made to minimize dilution errors. The crystal slurry which remained in the centrifuged sample was observed underneath an optical microscope (CX-41, Olympus, Japan) to confirm that the decrease in concentration is because of crystallization and not due to other phenomena, such as amorphous precipitation.
# (§2) This lag time is commonly termed as induction time.[33] We found the induction time graphically by finding the intersection between the tangents of the point of inflection (tangent of the biggest gradient after the solution concentration dropped substantially) and the initial concentration (which stays constant until the solution concentration drops substantially). A graphical visualization and a detailed definition and justification of induction time can be found in the Supporting Information.
# The crystal yield was calculated to evaluate the performance of crystallization. […] The yield can be either expressed in terms of concentration or supersaturation ratio, which is St = ct/c* for an ideal solution with […] at time zero. [drawing 2] 2
# [2] = Static light scattering (Debye plot): second osmotic virial coefficient B22 and derived activity coefficient; format: physicochemical; settings: for B22 (second virial coefficient): SLS Debye plot, ≤ 3 mg·mL^–1, 24.0 °C
# Excerpt: The procedure was identical to the DLS experiments, but instead of disposable cuvettes, a quartz cuvette was utilized. After each run, the quartz cuvette was carefully washed with deionized water, ethanol, and IPA followed by drying to remove any impurities and dust before further usage for the next sample. A solvent refractive index of 1.3304 and a refractive index increment of Δn/Δc = 0.183 were utilized.[34] The second virial coefficient was obtained by using Debye plots at low protein concentration (≤ 3 mg·mL^–1).
# [3] = for solubility: equilibrium with crystals, UV 280 nm
# Description: as §1, §2
# To ensure that the true solubility concentration was measured, the samples were gently mixed frequently with pipettes once the crystallization experiment had finished. […] Once the concentration had stabilized, that is, no significant change over multiple days, this concentration was taken as solubility.
# [4] = Dynamic light scattering: diffusion coefficient and polydispersity of insulin; format: physicochemical; settings: DLS
# Description: The solutions were prepared identically to the crystallization solutions which have been described previously. The solutions were filtered with a 0.22 μm pore size filter into a disposal cuvette (polystyrene) which then was loaded into a Zetasizer μV (Malvern, UK).
# [5] = pH 6.0, St=0 = 10.0, ZnSO4, 24.0 °C
# [6] = pH 6.0, initial insulin 3 mg·mL^–1, ZnSO4 […], 24.0 °C
substance,measurement,setting,value
Human insulin,desupersaturation rate after a yield of 85% was achieved,"[1]; St=0 = 10.0, pH 6.0",0.03 h^–1
same,desupersaturation rate after a yield of 85% was achieved,"[1]; St=0 = 10.0, pH 6.2",0.01 h^–1
same,desupersaturation rate after a yield of 85% was achieved,"[1]; St=0 = 10.0, pH 6.5",0.07 h^–1
same,desupersaturation rate after a yield of 85% was achieved,"[1]; St=0 = 10.0, pH 6.7",0.02 h^–1
same,t50% (time required to achieve a yield of 50%),"[1]; pH 6.0, St=0 = 5.6",128.0 h
same,induction time,"[1]; pH 6.0, St=0 = 5.6, ZnSO4, 24.0 °C",81.0 h
same,crystallization rate ΔS/Δt,[1]; [5],0.18 h^–1
same,induction time,[1]; [5],26.5 h
same,time after which the concentration drops,[1]; [6],4.0 h
same,time to reach quasi-equilibrium concentration,[1]; [6],roughly 20.0 h
same,reduction in induction time,"[1]; pH 6.0, initial supersaturation ratio increased from 5.6 to 10.0",67%
same,decrease in induction time,[1]; pH 6.0 to pH 6.7 at St=0 = 7.4,roughly 81%
same,decrease in induction time,[1]; pH 6.0 to pH 6.7 at St=0 = 10.0,~88%
same,reduction in induction time,"[1]; pH 6.5, initial supersaturation ratio increased from 5.6 to 10.0",77%
same,crystallization rate ΔS/Δt,"[1]; pH 6.7, St=0 = 5.7, 12.0 h to 41.0 h, ZnSO4, 24.0 °C",0.13 h^–1
same,crystallization rate ΔS/Δt,"[1]; pH 6.7, St=0 = 10.0, 1.3 h to 26.0 h, ZnSO4, 24.0 °C",0.32 h^–1
same,time to reach quasi-equilibrium concentration,"[1]; pH 6.7, initial insulin 3 mg·mL^–1, ZnSO4 […], 24.0 °C",~80.0 h
same,B22 (second virial coefficient),[2]; pH 6.0,–4.23 × 10^–4 mL·mol·g^–2
same,B22 (second virial coefficient),[2]; pH 6.2,–2.47 × 10^–4 mL·mol·g^–2
same,B22 (second virial coefficient),[2]; pH 6.5,–4.18 × 10^–4 mL·mol·g^–2
same,B22 (second virial coefficient),[2]; pH 6.7,–4.0 × 10^–4 mL·mol·g^–2
same,γ (activity coefficient),"[2]; pH 6.7, calculated from B22 with eq 4, 24.0 °C",0.96
same,solubility,"[3]; pH 6.0, ZnSO4, 73 mM citric buffer, 7 mM HEPES, 24.0 °C",0.14 mg·mL^–1
same,increase in solubility,"[3]; pH 6.0 to pH 6.7, ZnSO4, 24.0 °C",5 fold
same,solubility,"[3]; pH 6.5, ZnSO4, 73 mM citric buffer, 7 mM HEPES, 24.0 °C",0.41 mg·mL^–1
same,increase in solubility,"[3]; pH 6.5 to pH 6.7 (0.2 pH units), ZnSO4, 24.0 °C",roughly 70%
same,insulin equilibrium concentration (solubility c*),"[3]; pH 6.7, ZnSO4 (SO4^2– anion), thermodynamic, equilibrium with crystals after crystallization, 73 mM citric buffer, 7 mM HEPES, 24.0 °C, monitored up to 4 weeks, UV 280 nm of centrifuged supernatant",0.70 mg·mL^–1 and 0.70 ± 0.03 mg·mL^–1
same,diffusion coefficient,"[4]; pH 6.0, lower end of insulin concentrations probed, 24.0 °C",0.99 × 10^–6 cm^2·s^–1
same,diffusion coefficient,"[4]; pH 6.0, upper end of insulin concentrations probed, 24.0 °C",0.86 × 10^–6 cm^2·s^–1
same,diffusion coefficient,"[4]; pH 6.7, Ac^2– anion, cins = 3 mg·mL^–1, 24.0 °C",0.87 ± 0.1·10^–3 10^–6 cm^2·s^–1
same,diffusion coefficient,"[4]; pH 6.7, Cl^– anion, cins = 3 mg·mL^–1, 24.0 °C",0.87 ± 0.5·10^–3 10^–6 cm^2·s^–1

# — PMC9073949 (Crystal Growth & Design, 2022)
